Data: US20110088129A1

How the values were obtained:
[1] = target: binding sites in brush border membrane vesicles (BBMV) from midguts of last instar Helicoverpa armigera larvae (Helicoverpa armigera); assay: direct saturation assay, labeled Cry1Ac on BBMV at the same concentration as for Cry2Ab
[2] = target: binding sites in brush border membrane vesicles (BBMV) from midguts of last instar Helicoverpa zea larvae (Helicoverpa zea); assay: homologous competition, 125I-Cry1Ac on H. zea BBMV, LIGAND program
[3] = target: binding sites in brush border membrane vesicles (BBMV) from midguts of last instar Helicoverpa armigera larvae (Helicoverpa armigera); assay: homologous competition, 125I-Cry1Ac on H. armigera BBMV, LIGAND program

Cry1Ac activated toxin (trypsin-activated Cry1Ac protoxin from B. thuringiensis strain HD73) (from UniProt P05068 29-623) (ligand)
fold less toxin needed for saturation than in the Cry2Ab assay [1]: 4 fold
Kd [2]: 170 pM
Rt (binding site concentration) (pmol/mg BBMV protein) [2]: 10
Kd [3]: 80 pM
Rt (binding site concentration) (pmol/mg BBMV protein) [3]: 0.96
